{
  "source": "patent US6410248",
  "key": {"[1]": {"test_system": "TATA box-selected zinc finger protein (Zif268 variant, boxed clone FIG. 3A) (artificial)", "experiment": "EMSA", "settings": "same buffer, 5 mM MgCl2, 20 uM ZnSO4, pH 7.9"}, "[2]": {"test_system": "NRE-selected zinc finger protein (Zif268 variant, boxed clone FIG. 3C) (artificial)", "experiment": "EMSA", "settings": "same buffer, 5 mM MgCl2, 20 uM ZnSO4, pH 7.9"}, "[3]": {"test_system": "p53 site-selected zinc finger protein (Zif268 variant, boxed clone FIG. 3B) (artificial)", "experiment": "EMSA", "settings": "same buffer, 5 mM MgCl2, 20 uM ZnSO4, pH 7.9"}, "[4]": {"test_system": "NRE-selected zinc finger protein (Zif268 variant, boxed clone FIG. 3C) (artificial)", "experiment": "competition", "settings": "nonspecific over specific dissociation constant ratio; calf thymus competitor in EMSA"}, "[5]": {"test_system": "TATA box-selected zinc finger protein (Zif268 variant, boxed clone FIG. 3A) (artificial)", "experiment": "competition", "settings": "nonspecific over specific dissociation constant ratio; calf thymus competitor in EMSA"}, "[6]": {"test_system": "p53 site-selected zinc finger protein (Zif268 variant, boxed clone FIG. 3B) (artificial)", "experiment": "competition", "settings": "nonspecific over specific dissociation constant ratio; calf thymus competitor in EMSA"}, "[7]": {"molecular_target": "Zif268 zinc fingers 1-3 (wild type) (UniProt P08046)", "experiment": "competition", "settings": "nonspecific over specific dissociation constant ratio; calf thymus competitor in EMSA"}},
  "data": [
    {"substance": "AGGGGGGCTATAAAAGGGGGT (double strand) [TATA box site]", "values": [
      {"measurement": "Kd", "setting": "[1]", "result": 0.12, "unit": "nM"}
    ]},
    {"substance": "GCCGTCAAGGGTTCAGTGGGG (double strand) [NRE site]", "values": [
      {"measurement": "Kd", "setting": "[2]", "result": 0.038, "unit": "nM"}
    ]},
    {"substance": "GCTGTTGGGACATGTTCGTGA (double strand) [p53 binding site]", "values": [
      {"measurement": "Kd", "setting": "[3]", "result": 0.11, "unit": "nM"}
    ]},
    {"substance": "calf thymus DNA", "values": [
      {"measurement": "DNA-binding specificity ratio (nonspecific Kd / specific Kd) (fold (Kdns/Kd))", "setting": "[4]", "result": 36000},
      {"measurement": "DNA-binding specificity ratio (nonspecific Kd / specific Kd) (fold (Kdns/Kd))", "setting": "[5]", "result": 25000},
      {"measurement": "DNA-binding specificity ratio (nonspecific Kd / specific Kd) (fold (Kdns/Kd))", "setting": "[6]", "result": 54000},
      {"measurement": "binding signal (fold (Kdns/Kd))", "setting": "[7]", "result": 31000}
    ]}
  ]
}
